Earlier results as cited in patent US20260055200A1, “COMBINATION THERAPIES” (Alligator Bioscience AB, priority 2022, published 2026).
Where two headings read alike, the source gives them in different places.

Legend:
[1] = tested on: metastatic pancreatic cancer; conditions: MPACT study; cited from earlier work
[2] = tested on: metastatic pancreatic cancer; conditions: standard first-line treatment; cited from earlier work
[3] = tested on: metastatic pancreatic cancer; conditions: PRODIGE 4, 342 patients; cited from earlier work
[4] = tested on: previously untreated pancreatic cancer; conditions: cited from earlier work
[5] = tested on: previously untreated metastatic pancreatic cancer; conditions: cited from earlier work
[6] = in combination with Gem-NabPac with or without nivolumab

Nc1ccn([C@@H]2O[C@H](CO)[C@@H](O)C2(F)F)c(=O)n1 [gemcitabine]
ORR [1]: 7%
mOS [1]: 6.7 months
median overall survival (mOS) [2]: about 6 months
mOS [3]: 6.8 months
objective response rate (ORR) [3]: 9.4%

Selicrelumab: CD40 agonistic monoclonal antibody, with an IgG2 format
DLT ([4]; 0.2 mg/kg dose level, with gemcitabine): One DLT, a cerebrovascular accident
proportion of patients with liver enzyme elevations ([4]; all grade 1-2, with gemcitabine): approximately ⅔
dose up to which the combination was well tolerated ([4]; in combination with gemcitabine): up to 0.2 mg/kg
complete responses ([4]; with gemcitabine): no complete responses (CR) were observed
patients with cytokine release syndrome in relation to the infusion ([4]; with gemcitabine): 20 of the 22
response rate ([4]; with gemcitabine): 19%

B1: APX005M: CD40 agonistic monoclonal antibody, with a mutated IgG1 format for improved binding to FcγR2b (antibody, chains of the INN, looked up, V domains shown)
VH: QVQLVESGGGVVQPGRSLRLSCAASGFSFSSTYVCWVRQAPGKGLEWIACIYTGDGTNYSASWAKGRFTISKDSSKNTVYLQMNSLRAEDTAVYFCARPDITYGFAINFWGPGTLVTVSS
VL: DIQMTQSPSSLSASVGDRVTIKCQASQSISSRLAWYQQKPGKPPKLLIYRASTLASGVPSRFSGSGSGTDFTLTISSLQPEDVATYYCQCTGYGISWPIGGGTKVEIK
Complete Response, patients ([5]; Total (N = 24)): 0
Not Evaluable, patients (%) ([5]; Total (N = 24)): 1 (4%)
Partial Response, patients (%) ([5]; Total (N = 24)): 13 (54%)
Progressive Disease, patients (%) ([5]; Total (N = 24)): 1 (4%)
Stable Disease, patients (%) ([5]; Total (N = 24)): 9 (38%)
circulating mutant KRAS DNA [5, 6]: marked and rapid decrease
immune profiling of PBMCs, myeloid compartment [5, 6]: rapid activation of DCs in most patients
